The values that follow come from PMC3373496, “An Evolutionarily Conserved Enhancer Regulates Bmp4 Expression in Developing Incisor and Limb Bud”.

The target in one series is GST-Msx2 (UniProt Q03358 1-267). Nature of the series: EMSA; 1X phosphate buffer, 10% glycerol, 0.3 mg/ul BSA, 0.1 ug/ul DNaseI-digested poly[dG-dC], 20 ul, on ice 10 min + 20 min with probe; 6% native PAGE, 1x TBE, 4 C. The settings on record: protein: recombinant; tags: N-terminal GST (pGEX3X); label: 32P 5' end (PNK) when probe; blunt. Background: A gel shift assay detects complexes by their altered migration in electrophoresis.
Chain of GST-Msx2 (Q03358 whole entry): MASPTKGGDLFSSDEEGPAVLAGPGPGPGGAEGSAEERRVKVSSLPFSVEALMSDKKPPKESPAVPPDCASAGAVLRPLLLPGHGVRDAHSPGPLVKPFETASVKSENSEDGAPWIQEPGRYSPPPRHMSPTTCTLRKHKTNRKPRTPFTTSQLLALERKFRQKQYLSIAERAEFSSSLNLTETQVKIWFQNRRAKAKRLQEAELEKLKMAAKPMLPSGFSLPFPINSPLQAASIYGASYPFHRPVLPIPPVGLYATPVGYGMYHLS

The target in another series is GST-Pitx1 (UniProt P70314 1-315). Nature of the series: EMSA; 1X phosphate buffer, 10% glycerol, 0.1 ug/ul DNaseI-digested poly[dG-dC], 20 ul, on ice 10 min + 20 min with probe; 6% native PAGE, 1x TBE, 4 C. To be noted: protein: recombinant; tags: N-terminal GST (pGEX3X); label: 32P 5' end (PNK) when probe; blunt.

B1: WTMsxBSCONS3 (dsDNA)
DNA 1: GACCCTATGTAATTGCATTCCTGAA
DNA 2: TTCAGGAATGCAATTACATAGGGTC
Turning to B1, the binding result in the series with GST-Msx2 is “binds”.

B2: WTPitxBSCONS3 (dsDNA)
DNA 1: AGTTCCCTACATAATCCTTACCGTG
DNA 2: CACGGTAAGGATTATGTAGGGAACT
In the case of B2, the binding result with GST-Pitx1 was “binds”.

B3: MutPitxBSCONS3 (dsDNA)
DNA 1: AGTTCCCTACAACGCATTTACCGTG
DNA 2: CACGGTAAATGCGTTGTAGGGAACT
Take B3: the binding result with GST-Pitx1 is reported as “no binding”.

B4: MutMsxBSCONS3 (dsDNA)
DNA 1: GACCCTATCCGGCCTCATTCCTGAA
DNA 2: TTCAGGAATGAGGCCGGATAGGGTC
In the case of B4, the binding result with GST-Msx2 is on record as “no binding”.

B5: Bicoid (dsDNA)
DNA 1: TCATGCCTGTAATCCCAGCACTCAG
DNA 2: CTGAGTGCTGGGATTACAGGCATGA
As to B5, the binding result with GST-Pitx1 is “binds”.
